Data on three proteins can be found in article PMC7116788 (Nature microbiology, 2021).

Data set [1] deals with the molecule itself. As to the kind of experiment: cryo-EM structure.
Data set [2] concerns the molecule itself. Nature of the data set: cryo-EM structure. The source holds these as a separate data set.

Where two headings read alike, the source gives them in different places.

The stoichiometry N is the number of molecules, sites or subunits per partner or assembly.

B1: PorL (Porphyromonas gingivalis ATCC 33277) (natural protein, UniProt B2RLE9 1-309, looked up)
chain: MGHYRRYKNILEMYLASHKGRRLLNIVYSWGAAVVILGALFKLLHLPMGNEMLFVGMITEFLVFFISGFEKPAMEYHWEEVFPELDSKNPMDRREMEQRREYLREKAKEAAAYAERPSSVRLASASLGTQPQEQPKPATPFQSQLTGILPEEQIQRLSEGIDKLAEAGEQLARIGRTAAAMTESYEQMQADQEGLRLNSQSYIQQMESLSRNISGLNTIYEIQLKGISSQIDTIDRINRGLAHIRDMYDNSVIDSSSFRNENERMARQLTQLNEVYARLLQALTTNVGLPGMPGNFGASNPSSSGSSPL
B1: the binding result in data set [1] is “binds”.

B2: GldL (Flavobacterium johnsoniae) (natural protein)
chain: MALLSKKVMNFAYGMGAAVVIVGALFKITHFEIGPLTGTVMLSIGLLTEALIFALSAFEPVEDELDWTLVYPELANGQARKKEAKAETATDAQGLLSQKLDAMLKEAKVDGELMASLGNSIKNFEGAAKAISPTVDSIAGQKKYAEEMSMAAAQMESLNSLYKVQLESASRNAQANSEIAENAAKLKEQMASMTANIASLNSVYGGMLSAMSNKG
B2: the “stoichiometry N” value in data set [2] turned out to be 5.

B3: PorM (Porphyromonas gingivalis ATCC 33277) (natural protein, UniProt B2RLE8 1-516, looked up)
chain: MAVGSNGNANRQKMINLMYLVFIAMMALNVSSEVLDGFDKVDKSLTSSIDGSDKRNNLVLSELNTAYRTNPEKVKVWYERSLVLQKEADSLCTFIDDLKLAIARESDGKDAKVNDIRRKDNLDASSVVMLNPINGKGSTLRKEVDKFRELVATLMTDKAKLKLIEQALNTESGTKGKSWESSLFENMPTVAAITLLTKLQSDVRYAQGEVLADLVKSVDVGDYRVNSITAQVIPQSQIVMSGDTYKANIVLSSVDTTQRPDVFVNGKLLSPENMGLFTATAGAPGTYPVKGYIEMMGNDGVKIRRDFESEYFVTEPMASVAPTMMNVLYAGIDNPINIAVPGVAQQNVSATINNGTLTRRGNLWIARPTKVGSEAIISVTAQSGGRTIQMAKTTLRVRALPDPLPYIEYKDVQGNTKRFKGGRLGKREILAAGGIKAALDDDLLEVNYTVVKFQLVFYDSMGNSIPEVSDGASFSERQKRQIQNLGKGKRFYVTEVIARGPDGIERKIPAIEVIVN
B3: the “stoichiometry N” value in data set [1] was 2.
